The text below walks through data of PMC3093372, “A Large and Intact Viral Particle Penetrates the Endoplasmic Reticulum Membrane to Reach the Cytosol” (PLoS Pathogens, 2011).

First the molecules themselves.
B1: SV40 VP1 coat protein (natural protein, simian virus 40 (SV40), UniProt P03087 1-362, looked up)
chain: MAPTKRKGSCPGAAPKKPKEPVQVPKLVIKGGIEVLGVKTGVDSFTEVECFLNPQMGNPDEHQKGLSKSLAAEKQFTDDSPDKEQLPCYSVARIPLPNINEDLTCGNILMWEAVTVKTEVIGVTAMLNLHSGTQKTHENGAGKPIQGSNFHFFAVGGEPLELQGVLANYRTKYPAQTVTPKNATVDSQQMNTDHKAVLDKDNAYPVECWVPDPSKNENTRYFGTYTGGENVPPVLHITNTATTVLLDEQGVGPLCKADSLYVSAVDICGLFTNTSGTQQWKGLPRYFKITLRKRSVKNPYPISFLLSDLINRRTQRVDGQPMIGMSSQVEEVRVYEDTEELPGDPDMIRYIDEFGQTTTRMQ
notes: major capsid protein VP1 of simian virus 40, native protein of the virus (genome from pUCSV40); no residues stated; Stood in the assays as part of viral particles or of VP1 pentamers; the introduction says the capsid is 72 pentamers of VP1; source: SV40 virions purified from SV40-infected or viral genome-transfected CV-1 cells (OptiPrep gradient); input virus in S1 and S2 fractions and whole cell …
B2: SV40 VP2 (natural protein)
chain: MGAALTLLGDLIATVSEAAAATGFSVAEIAAGEAAAAIEVQLASVATVEGLTTSEAIAAIGLIPQAYAVISGAPAAIAGFAALLQTVTGVSAVAQVGYRFFSDWDHKVSTVGLYQQPGMAVDLYRPDDYYDILFPGVQTFVHSVQYLDPRHWGPTLFNAISQAFWRVIQNDIPRLTSQELERRTQRYLRDSLARFLEETTWTVINAPVNWYNSLQDYYSTLSPIRPTMVRQVANREGLQISFGHTYDNIDEADSIQQVTERWEAQSQSPNVQSGEFIEKFEAPGGANQRTAPQWMLPLLLGLYGSVTSALKAYEDGPNKKKRKLSRGSSQKTKGTSASAKARHKRRNRSSRS
notes: minor capsid protein VP2 of simian virus 40, native protein of the virus; contains all of VP3 plus an additional N-terminal extension; Detected with a VP2/VP3 antibody that sees both proteins; source: SV40 virions purified from SV40-infected or viral genome-transfected CV-1 cells (OptiPrep gradient); input virus in S1 and S2 fractions of infected CV-1 cells

Series [1] deals with the molecule itself. Description: sucrose gradient sedimentation; S1 of CV-1 cells transfected with the SV40 genome for 48 hrs; continuous 20-40% sucrose gradient, 49,500 rpm, 50 min, 4°C; fractions blotted for VP1.
For the series “SV40 VP1 coat protein”, the target named is B1. Description: co-IP; S2 (Triton X-100 extract of P1, ER-localized virus) from CV-1 cells infected with SV40 for 12 hrs; precipitated with VP1 monoclonal antibodies (CC10 and BC11), Protein G-Dynabeads, wash 50 mM Hepes pH 7.5, 500 mM NaCl, 1% Triton X-100; blot with VP2/VP3 antibody. To be noted: partners not purified.

On to B1, for which the “stoichiometry N” value in series [1] stood at 5.

B2: the binding result in the series with SV40 VP1 coat protein is given as “binds”.
